Assay results from a protein production outcome set (Wang et al. 2014).

assay: label from the status in PepcDB records

Protein production, not failed:
MHGKDPFSDFREFINTMESRVQELGKAYGVEHLAGPQGFAVRYLFENQDKEIFIKDIEKKLSISKSVASNLVKRMEKNGFVELVTSDKDKRYKYVHLTDLGKKKAQDVGHFREAIHGQLLDGISKEDAETAFRVFHQIRKNLEKNKELEHHHHHH
MHGSQKDTTFTKIFVGGLPYHTTDASLRKYFEGFGDIEEAVVITDRQTGKSRGYGFVTMADRAAAERACKDPNPIIDGRKANVNLAYLGAKPRSLQTGFAIGV
MHIAIIGAAGMVGRKLTQRLVKDGSLGGKPVEKFTLIDVFQPEAPAGFSGAVDARAADLSAPGEAEKLVEARPDVIFHLAAIVSGEAELDFDKGYRINLDGTRYLFDAIRIANGKDGYKPRVVFTSSIAVFGAPLPYPIPDEFHTTPLTSYGTQKAICELLLSDYSRRGFFDGIGIRLPTICIRPGKPNAAASGFFSNILREPLVGQEAVLPVPESIRHWHASPRSAVGFLIHGAMIDVEKVGPRRNLSMPGLSATVGEQIEALRKVAGEKAVALIRREPNEMIMRMCEGWAPGFEAKRARELGFTAESSFEEIIQVHIEDELGGSLK
MHLETNMAGHSIPHFQNDGGHSVIEIGVKEFMCTGASVPFDHPHIFIDMGDDNEKVCSYCSTLYRYNPSLKAEQTNPPGCVFHVKAALEHHHHHH
MHLKEKITTIIQGQRTGVLSTVRNDKPHSAFMMFFHEDFVLYVATDRQSKKITDIENNPNVHVLLGREGKKLDEDYIEVEGLASIEEDSTLKNKFWNNSLKRWLLRPEDPNYVLIKINPDTIYYIDGAGTTEPEFLRL
MHMKTVRQERLKSIVRILERSKEPVSGAQLAEELSVSRQVIVQDIAYLRSLGYNIVATPRGYVLAGGKSGVSRLVAVKHAPEEIKEELLCVVRNGGRIVDVIVEHPVYGEIRGIIDVSSEEEVLKFVNLMEMAKTEPLLTLSGGVHLHTIEAPDEETMERIMRELKKKGFLIEEG

Protein production, failed:
MHEESGPSWGMRGLRKWLGTAPETRDELLKLVQDSRRFLEPDTVAMLEGVLDLPATKVREVMTPRTSIISLQEDDELLDILHVLIESAHSRFPVFSSDQPDNVVGILLAKDLLPFLTEPSAKVDVRALMRQPLFVPESARSDQVLRMLKHTQTHIAVVIDEYGTTSGLVTLEDILEEIVGEIEDEHDNVDEEAQYIVPDHAHTTANSWMVQALTPIEHFNTVLDADFSDDEVETVGGLLLQEIGLVSDLQGQVIELDDWQFTIIEADARTIHLIRAVHK
MHEIYIYLGIMFMPTYKHSHTPSHDIEDDEDEGTEHLVDELRTNAGAFEEEALVEKLLENLDLDEVEEDEHDAANASFFDSLHFSSIFVLQKREGENESF
MHEKVPKKTYDSELYNGYLAIYNGYGDLRYFTVKIENDICVSLVWNTGMTKKSRGKKRIRINVYRPKIAPAKNKKPKPTKEQLMDPEFSDEDVLTSLGFDDGGYIIPLPKKSLMLINLPDSFRDELQTMHVSFYLREVGKLMFG
MHFCFISSISKIIDRYEIQHADELRALDLEEKIQNYLPHKELLETVQRLAVRHIFLPSSSDKKNVFFLLSTCEYSKLEEPNVDNVSVDSLISLEEQLETALSVSRARKAELMMEYIESLKEKVSALVFIFDKGHILGYDDS
MHHQQRMAALGTDKELSDLLDFSAMFSPPVSSGKNGPTSLASGHFTGSNVEDRSSSGSWGNGGHPSPSRNYGDGTPYDHMTSRDLGSHDNLSPPFVNSRIQSKTERGSYSSYGRESNLQGCHQQSLLGGDMDMGNPGTLSPTKPGSQYYQYSSNNPRRRPLHSSAMEVQTKKVRKVPPGLPSSVYAPSASTADYNRDSPGYPSSKPATSTFPSSFFMQDGHHSSDPWSSSSGMNQPGYAGMLGNSSHIPQSSSYCSLHPHERLSYPSHSSADINSSLPPMSTFHRSGTNHYSTSSCTPPANGTDSIMANRGSGAAGSSQTGDALGKALASIYSPDHTNNSFSSNPSTPVGSPPSLSAGTAVWSRNGGQASSSPNYEGPLHSLQSRIEDRLERLDDAIHVLRNHAVGPSTAMPGGHGDMHGIIGPSHNGAMGGLGSGYGTGLLSANRHSLMVGTHREDGVALRGSHSLLPNQVPVPQLPVQSATSPDLNPPQDPYRGMPPGLQGQSVSSGSSEIKSDDEGDENLQDTKSSEDKKLDDDKKDIKSITSNNDDEDLTPEQKAEREKERRMANNARERLRVRDINEAFKELGRMVQLHLKSDKPQTKLLILHQAVAVILSLEQQVRERNLNPKAACLKRREEEKVSSEPPPLSLAGPHPGMGDASNHMGQM
MHILSMIKSQLKLLFNNRLAVFAIILAPILLTFLVSYSSSSNSKTNVYFADQDNTEASRQLVNMLKNNHDLNLISSSESEIKNKVDDDNITVGVLINKGFGYKLQNNKALDITLIEDYDSVDGEKLSDIILSTENTLQKVNLDSKSISRVLSSNESSISNKIIKKINNGSGVKLLYKNLKSSQNVEDKNAQNLIGFLLMFLWFIVIQGFRTLIEEKENNTFNRIKGTPTNYSKYLLSKIIANYIFGMIIIAIILIVGKYGLKSKIINNVGPEIAILSIYLFSIVGLVMIFVPFVKKHQTFTIIGAAIMVLTGLLGGSFFSMDELQLPKAIEIISKFMPETWGIKSLKEVVFNNLSLGSQSQTILVLGIAGIVGLLISTIIVKIIDRTEKNF
MHILVTGFAPFDNQNINPSWEAVTQLEDIIGTHTIDKLKLPTSFKKVDNIINKTLASNHYDVVLAIGQAGGRNAITPERVAINIDDARIPDNDDFQPIDQAIHLDGAPAYFSNLPVKAMTQSIINQGLPGALSNSAGTFVCNHTLYHLGYLQDKHYPHLRFGFIHVPYIPEQVIGKPDTPSMPLEKIVAGLTAAIEAISNDEDLHLALGTTE
MHIPENLYVVGTMNIADRSLALVDLALRRRFAFVGLEPRLGQVWRDWVVKECAVDPGLVADIERRIAELNDQIAADARLGKQFRIGHSYVTPAHRLEAGDTKKWFLQVVETEIGPLLDEYWFDAPDEAQKAIARLTQGLEHHHHHH
MHLAYPAVLSALLFCTGLYGVLARRNAILVLMSVELMLNAVNLNLVAFDVWLSRAAEETLHSGQALTLFTIAIAAAEIGIGLAIVLAVHRNRGTSDIDKLRDTAEGHEPDGPDTDTPATGTAAEKAEATA
MHLDPDACYHAVQSRDRRFDGWFFVGVTSTGVYCRPICAVRTPLQKNCRFFASAAAAEKAGFRPCLRCRPELAPGHSLAEMSSSLARAAARMIDEGFLQQHDLAALAAAVGVTDRHLRRIFRAEFDVSPIEYAQTQRLLLAKRLLTDTAMPVGDVAYAAGFGSVRRLNSGFAEHYGFAPTRLRTRAAPVSRGDDGATLMLGYRPPFAWHALLDFLRARAVDGVEVVDAHSYARTIALDYAGRRHAGWLRARDVPQRHAIALTLSASLVQAMPPVLARVRRLFDLDCRPDLVDTHLGTLAAGTPGLRVPGAVDGFEIAVRAIAGQVVSLARARRILARLAAAYGTPLAQPRAGLPTAFPSATALASVDPQALSGETGLQASRAAAMVEIARAIDAGRLRLEPLVPLAPTLAALQALSGIGEWTAQYIAMRALGWPNAFPLGDYVLRKRLADHDGTLPTRHAMATRAEDWAPWRAYAAMHLWHRDDAQAPTP
MHLNTLAGRSYNDLMQYPVFPWILADYDSEEVDLTNPKTFRNLAKPMGAQTDERLAQYKKRYKDWEDPNGETPAYHYGTHYSSAMIVASYLVRMEPFTQIFLRLQGGHFDLADRMFHSVREAWYSASKHNMADVKELIPEFFYLPEFLFNSNNFDLGCKQNGTKLGDVILPPWAKGDPREFIRVHREALECDYVSAHLHEWIDLIFGYKQQGPAAVEAVNVFHHLFYEGQVDIYNINDPLKETATIGFINNFGQIPKQLFKKPHPPKRVRSRLNGDNAGISVLPGSTSDKIFFHHLDNLRPSLTPVKELKEPVGQIVCTDKGILAVEQNKVLIPPTWNKTFAWGYADLSCRLGTYESDKAMTVYECLSEWGQILCAICPNPKLVITGGTSTVVCVWEMGTSKEKAKTVTLKQALLGHTDTVTCATASLAYHIIVSGSRDRTCIIWDLNKLSFLTQLRGHRAPVSALCINELTGDIVSCAGTYIHVWSINGNPIVSVNTFTGRSQQIICCCMSEMNEWDTQNVIVTGHSDGVVRFWRMEFLQVPETPAPEPAEVLEMQGPLSHPHPNPIEVRNYSRLKPGYRWERQLVFRSKPTMHTAFDRKDNAHPAEVTALGISKDHSRILVGDSRGRVFSWSVSDQPGRSAADHWVKDEGGDSCSGCSVRFSLTERRHHCRNCGQLFCQKCSRFQSEIKRLKISSPVRVCQNCYYNLQHERGSEDGPRNC
MHNAGKQVAAPLETPMPAATAALLAERADHPLYVASVEKGMRVLEAFDAARDSLSLTDIVQLTGMGKSAAQRFTHTWEALGYLAKDPQSRRYRLGPKVVELSYYFLRSDHLVSLAAPHLVALREHCGLAVNMSVLSGDDMIYLLRLPSRQLTLVEMLPGRRMPAWSNSAGRMLLSQRDDASVRDLLARAAPQLYTPRTQTDPQALLAEIRQAREDGYAITQDQVLLNQMGVATLLRDERRQPLAAISVTAAADEYPRARLVAEIVPQMLKAAYAICGA
MHNKKWDLRIICAHAFTILIWGSAFPAIRMGLASYTPEHLTLLRLLIASFILLLFSFIYKLRIPDLKDIPAIFIFGALGFTFYHIALNYGEKTVNAGSASLIVSVTPIVTAILASIFLNEKMKLNGWIGGGISFIGIALISFSQGDAIQLNSGGFFILLAAISESLYFVFQTSYLKKYGFLPFTIYTILSSTVCMLIFFPGMYTEILAAPLEVNMSVIYLGLFPTVLPYIALAYIISHSGAAEATSSLYLTPVTACFVAWIWLGEVPTFVSIIGGGITILGILIVHIPVLRKEKHRNLANNQSV
MHPCHRPSFAFLRHPLSIVVCLALLAGCSTSPLQFPEPLLAKSEKAKATEGVALVSDDGKKAPASLAVPKTEFSGTPTSPRSIVGGVVDRMDKAILDDKKADISLNVEDVQLAAFINEVFGNILGLPFEIESALKEKTDRVTVRLEQPQTAQMVYEVARQVLVNYGVEILHQGDIYRFQIKQVGLSPDEPPILISGEARPSVPIAYRPVFQFVALHSVDPKDVIPWLNSAYEKSGLSVMADGARSGLMLKGMSSIVNQATEAVRLLDQPFMRGRHSLRIDPAFVSAADMASQLKTVIAAQGYSVGIGEAVGSIMLVPLESSNGLIVFANDGQLLDLVREWAQQVDRAPMAVAAGIGEEKEGLFFYEARNTRVTELAKSLRALVSGFAGEGAYGITSGLQSSASKRSGGGRRAGDDGAAPAVAPLLQAAGAAALVGGDGANGLLGGLAAGISGSGTIVEDENRNAILFRGAARTWQQMQGLLREMDKPARQVLIEVTVASVSLSDTQELGVEWEMLNGSFNSATSTGSKGSAGKGGFNYVINTAGGNTAAIQAMADNQRVRVLATPRILVKSGEQANINVGRDIPIPTAQVNDDSTTAGSTNLRNEIAYRSTGTILNVAPVVYSDSRVDLTVSQELSDSGGSSGGGGKASGGGISAPEISRTSLETSLTLKSGGSVLMGGLIRDNITDSNAGVPLLKDIPGIGFLFGRQKAVKTREEVIMLIQPYVLESDADAREVTEKLHAMLSKTLACSDRPGACRME
MHPFRWQRSRQRSSALSFLKKAFYQIPVIGWLVKDAAHGSPEAPYFFLFNAVVVGAALIYTFGYPLVITVAVAGAFAGIAGLVVLTAGDAFDKRAKQPATDVRRAKTATVRPLKKAA
MHPPIVMSTLPPSVAPPIGTAPQRHSLVSLRRLSWLRWALLAGQALLLVSCESLAGIALPYKPLLFLFAVQTVFNVFTVARLHWHTRHGTAPSDAELMVQMMVDLTALSAILFYTGGATNPFVSFYLPGLAIASAILPWRLVVTLAAYALACYSMLLLEYIPLDLHNPDNAVNYHLAGMWLNFVASAVMIAFFVARLSNALRQRDAQLNEARELLLREARVEALNDQAAAVAHEIGTPLATLAVIAGELRADAENTNRSDTPVADYQADLRTMEQQLELCRSILARLRADHETLAPQRIDAWLAPFVERWQLRHPQASLQAGAAPDAAAQAVDTARISQILTIALDNAARSQQAAGHDHRQGPPLRLDIAREADALVYRVTDHGHGLPPGLRARLGESPVASAHGGQGIGLYLAQSAARQLGGQISWHDNPAGGTVLELRLPLTAASERAIAAQPDFQP
